Measurements as given in patent publication US20200209227A1 (published 2020).

Target: T1, Rh5 (UniProt Q8IFM5 25-526)
T1 sequence: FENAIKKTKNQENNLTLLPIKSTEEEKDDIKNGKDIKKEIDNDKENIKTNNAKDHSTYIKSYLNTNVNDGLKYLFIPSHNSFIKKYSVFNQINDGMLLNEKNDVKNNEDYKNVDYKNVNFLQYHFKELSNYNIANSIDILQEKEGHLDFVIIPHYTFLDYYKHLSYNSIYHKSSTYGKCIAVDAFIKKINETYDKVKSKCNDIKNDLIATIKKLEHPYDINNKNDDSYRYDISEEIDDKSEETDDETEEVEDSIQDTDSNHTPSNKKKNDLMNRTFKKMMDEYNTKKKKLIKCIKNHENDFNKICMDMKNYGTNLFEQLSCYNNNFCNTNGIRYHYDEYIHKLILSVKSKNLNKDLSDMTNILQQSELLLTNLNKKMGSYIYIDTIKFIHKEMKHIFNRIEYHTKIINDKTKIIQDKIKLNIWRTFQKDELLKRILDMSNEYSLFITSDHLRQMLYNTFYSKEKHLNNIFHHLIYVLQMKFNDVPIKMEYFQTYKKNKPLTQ
Assay: BSI, free solution, label-free

B1: Basigin (receptor)
chain: AAGTVFTTVEDLGSKILLTCSLNDSATEVTGHRWLKGGVVLKEDALPGQKTEFKVDSDDQWGEYSCVFLPEPMGTANIQLHGPPRVKAVKSSEHINEGETAMLVCKSESVPPVTDWAWYKITDSEDKALMNGSESRFFVSSSQGRSELHIENLNMEADPGQYRCNGTSSKGSDQAIITLRVRSH
notes: If it applies, basigin was whole, on human erythrocytes
Kd: 1.08 µM
